Source: patent publication US20250326826A1 (CENTRO DE INGENIER A GEN TICA Y BIOTECNOLOG A, published 2025)
Read-outs that look alike come from different tables or passages of the source.

T1: GST-hVEGF121 (human, UniProt P15692-9 27-147)
T1 construct: plate coating of the VEGF ELISAs; also called human VEGF; not shown: glutathione S-transferase (GST) fusion partner
T1 sequence (looked up): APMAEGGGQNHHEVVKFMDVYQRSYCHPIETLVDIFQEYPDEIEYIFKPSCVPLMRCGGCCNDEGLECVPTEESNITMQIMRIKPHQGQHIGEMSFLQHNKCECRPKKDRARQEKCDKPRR


Experiments:
[1] = target: T2, Recombinant human bFGF (human, UniProt P09038 143-288, limits assumed); assay: ELISA, coated human bFGF
T2 construct: Bought (Sigma); also called hFGF-2; human basic fibroblast growth factor

[2] = target: T1, GST-hVEGF121; assay: competition ELISA, coated GST-hVEGF, competitor Fc-VEGFR2
[3] = target: T2, Recombinant human bFGF; assay: competition ELISA, coated bFGF, competitor Fc-FGFR1
[4] = target: T1, GST-hVEGF121; assay: ELISA, coated GST-hVEGF
[5] = target: T2, Recombinant human bFGF; assay: ELISA, coated human bFGF; remark: listed apart in the source
Procedure: (§1) The 96-well plates were coated with 100 μL/well of a solution of GST-hVEGF121, GST-mVEGF120, or GST at a concentration of 20 μg/mL, or with a solution of VEGFKDR- at a concentration of 10 μg/mL, or hFGF-2 or mFGF-2 at a concentration of 5 μg/mL in 1×PBS for 16 hours at 4° C. After the plates were blocked with PBS-5% skim milk for one hour, 1:2 serial dilutions of the purified VHHs were added, starting at 2 μg/mL in PBS-0.5% skim milk. The plates were incubated for 1 hour at 37° C. and after several washes, the monoclonal antibody 9E10, specific for c-myc, was added. After one hour of incubation at 25° C. the plates were washed thoroughly. The binding of the fragment to the antigen in the solid phase was detected by the peroxidase activity using 100 μL/well of TMB. The reaction was stopped with 50 μL/well of stop solution, and absorbance values at 450 nm were determined in a microtiter plate reader.
SEQ ID NO: 18 and SEQ ID NO: 19, and the bivalent Nb-VV6 and Nb-FF2, with sequences identified as SEQ ID NO: 20 and SEQ ID NO: 21, were expressed and purified as described in the Example 1. In all cases, the purity and identity of the proteins were verified by SDS-PAGE 12% and anti-polyhistidine Western Blot. […] The experimental mass of the polypeptides and the arrangement of the disulfide bridges were checked by ESI/MS-MS. The experimental and theoretical mass, for each polypeptide coincided, with errors less than 0.0015% in all cases, and the formation of intramolecular bridges between C22-C101 and C168-C247 was verified. […] The biological activity of the polypeptides was evaluated by ELISA for recognition of the VEGF and bFGF antigens, and by their ability to displace VEGF and bFGF binding to their respective VEGFR2 and FGFR1 receptors. […] Similarly, it was shown that the ability to displace the binding of antigens by their receptors was not affected.

[6] = target: Human VEGF (dendritic cell assay) (human, UniProt P15692-4 27-191, limits assumed); assay: cell-based or functional assay
[7] = target: T1, GST-hVEGF121; assay: competition ELISA, coated GST-hVEGF, competitor Fc-VEGFR2; remark: listed apart in the source
Procedure: (§2) The ability of VHHs to hinder receptors for binding to their ligand was assessed by ELISA, for which 96-well plates (NUNC, USA) were coated with GST-hVEGF or bFGF and blocked as described in the previous section. Serial 1:2 dilutions of the purified VHHs, from […] to […], were added and the plates and incubated for 1 h at 37° C. In this step, some wells were left where only PBS-milk was added. […] After 45 min incubation at 37° C., plates were washed with PBS-0.05% Tween. To detect receptor binding, HRP-conjugated anti-human IgG antibody was added, diluted 1:5000 in PBS-0.5% milk. After incubation for 1 h at 37° C., the plates were washed with PBS-Tween, and TMB was added. The reaction was stopped after 10 min. Wells incubated with the receptors without the addition of the antibody fragments were taken as reference for maximum binding in the absence of competitor. In this assay, in the case of inhibition of the VEGF/VEGFR axis, the CIGB166a antibody fragment was used as a positive control, and an anti-FGF polyclonal antibody was used for the FGF/FGFR axis. The percentage of inhibition of receptor binding to its ligand was calculated as follows: […]
The biological effect of VEGF is a consequence of its binding to two fundamental receptors (VEGFR1 and VEGFR2), so for a polypeptide that binds to VEGF to be effective in the therapeutic setting, it must block these interactions (Shibuya, Cell Structure and Function, 2001: 26: 25-35). The ability of Nb-V1 to compete with receptors 1 and 2 for binding to its ligand (VEGF) was assessed by solid phase ligand competition ELISA, as described above.

[8] = target: VEGF (soluble stimulus added to cell cultures); assay: cell-based or functional assay
[9] = target: bFGF (soluble stimulus added to cell cultures); assay: cell-based or functional assay
[10] = target: T1, GST-hVEGF121; assay: ELISA, coated GST-hVEGF; remark: listed apart in the source
Procedure: as §1

[11] = target: T2, Recombinant human bFGF; assay: competition ELISA, coated bFGF, competitor Fc-FGFR1; remark: listed apart in the source
Procedure: as §2

[12] = target: VEGF (soluble stimulus added to cell cultures); assay: cell-based or functional assay; remark: listed apart in the source
[13] = target: T1, GST-hVEGF121; assay: ELISA, coated GST-hVEGF; remark: listed apart in the source
Procedure: as §1
SEQ ID NO: 18 and SEQ ID NO: 19, and the bivalent Nb-VV6 and Nb-FF2, with sequences identified as SEQ ID NO: 20 and SEQ ID NO: 21, were expressed and purified as described in the Example 1. […] The biological activity of the polypeptides was evaluated by ELISA for recognition of the VEGF and bFGF antigens, and by their ability to displace VEGF and bFGF binding to their respective VEGFR2 and FGFR1 receptors. […]

Chain of VEGF (soluble stimulus added to cell cultures) (P15692 whole entry): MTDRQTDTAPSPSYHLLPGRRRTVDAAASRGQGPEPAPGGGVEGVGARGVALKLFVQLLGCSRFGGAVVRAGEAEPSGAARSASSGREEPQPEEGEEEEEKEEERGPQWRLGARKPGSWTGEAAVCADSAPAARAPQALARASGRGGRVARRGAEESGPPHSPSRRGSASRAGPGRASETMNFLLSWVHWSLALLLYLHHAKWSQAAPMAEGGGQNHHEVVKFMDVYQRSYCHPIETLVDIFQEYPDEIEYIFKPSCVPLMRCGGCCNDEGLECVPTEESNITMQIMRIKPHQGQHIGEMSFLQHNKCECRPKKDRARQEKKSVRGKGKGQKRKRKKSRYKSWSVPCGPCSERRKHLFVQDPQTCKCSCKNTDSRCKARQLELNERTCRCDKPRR
T2 sequence (P09038 143-288 limits assumed): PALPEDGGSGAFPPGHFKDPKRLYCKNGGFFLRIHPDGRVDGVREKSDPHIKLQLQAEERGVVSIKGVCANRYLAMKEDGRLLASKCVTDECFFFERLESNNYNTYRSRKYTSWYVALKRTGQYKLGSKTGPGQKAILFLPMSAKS

Row | Binder | EC50 [1] [nM] | IC50 [2] [nM] | IC50 [3] [nM] | EC50 [4] [nM] | EC50 [5] [nM] | CD86 (MFI) on dendritic cells +VEGF +LPS, VHH 1 µg/mL [6] [MFI] | CD86 (MFI) on dendritic cells +VEGF +LPS, VHH 5 µg/mL [6] [MFI] | CD86 (MFI) on dendritic cells +VEGF +LPS, VHH 10 µg/mL [6] [MFI] | MHCII (MFI) on dendritic cells +VEGF +LPS, VHH 1 µg/mL [6] [MFI] | MHCII (MFI) on dendritic cells +VEGF +LPS, VHH 5 µg/mL [6] [MFI] | MHCII (MFI) on dendritic cells +VEGF +LPS, VHH 10 µg/mL [6] [MFI] | IC50 [7] [nM] | IC50, proliferation of HDMEC cells +VEGF (5 ng/ml) [8] [nM] | IC50, proliferation of HDMEC cells +bFGF (10 ng/ml) [9] [nM] | EC50 [10] [nM] | IC50 [11] [nM] | PD1 expression (%) in CD8+ cells treated with VEGF, VHH 1 µg/mL [12] [%] | PD1 expression (%) in CD8+ cells treated with VEGF, VHH 5 µg/mL [12] [%] | PD1 expression (%) in CD8+ cells treated with VEGF, VHH 10 µg/mL [12] [%] | fold decrease of EC50 against Nb-V1 [13] [fold]
1 | Nb-FF2\cmycH6 (VHH, Nb-FF2 without c-myc tracer peptide and histidine tag) QVQLVESGGGLVQPGGSLRLSCAASGTEDGRLLTLGGSWFRQAPGQGLEAVAAIGAGDRGGATYYADSVKGRFTISRDNSKNTLYLQMNSLRAEDTAVYYCTALYERQPQLAATKVARKWGQGTLVTVSSAHHSEDPSSKAPKAPAQVQLVESGGGLVQPGGSLRLSCAASGTEDGRLLTLGGSWFRQAPGQGLEAVAAIGAGDRGGATYYADSVKGRFTISRDNSKNTLYLQMNSLRAEDTAVYYCTALYERQPQLAATKVARKWGQGTLVTVSS | 5.98 | – | 53.7 | – | – | – | – | – | – | – | – | – | – | – | – | – | – | – | – | –
2 | Nb-F3\cmycH6 (VHH, Nb-F3 without c-myc tracer peptide and histidine tag) VHH: QVQLVESGGGLVQPGGSLRLSCAASGTEDGRLLTLGGSWFRQAPGQGLEAVAAIGAGDRGGATYYADSVKGRFTISRDNSKNTLYLQMNSLRAEDTAVYYCTALYERQPQLAATKVARKWGQGTLVTVSS | 11.5 | – | 134 | – | – | – | – | – | – | – | – | – | – | – | – | – | – | – | – | –

The remaining lines, values ahead:

Row | EC50 [1] [nM] | IC50 [2] [nM] | IC50 [3] [nM] | EC50 [4] [nM] | EC50 [5] [nM] | CD86 (MFI) on dendritic cells +VEGF +LPS, VHH 1 µg/mL [6] [MFI] | CD86 (MFI) on dendritic cells +VEGF +LPS, VHH 5 µg/mL [6] [MFI] | CD86 (MFI) on dendritic cells +VEGF +LPS, VHH 10 µg/mL [6] [MFI] | MHCII (MFI) on dendritic cells +VEGF +LPS, VHH 1 µg/mL [6] [MFI] | MHCII (MFI) on dendritic cells +VEGF +LPS, VHH 5 µg/mL [6] [MFI] | MHCII (MFI) on dendritic cells +VEGF +LPS, VHH 10 µg/mL [6] [MFI] | IC50 [7] [nM] | IC50, proliferation of HDMEC cells +VEGF (5 ng/ml) [8] [nM] | IC50, proliferation of HDMEC cells +bFGF (10 ng/ml) [9] [nM] | EC50 [10] [nM] | IC50 [11] [nM] | PD1 expression (%) in CD8+ cells treated with VEGF, VHH 1 µg/mL [12] [%] | PD1 expression (%) in CD8+ cells treated with VEGF, VHH 5 µg/mL [12] [%] | PD1 expression (%) in CD8+ cells treated with VEGF, VHH 10 µg/mL [12] [%] | fold decrease of EC50 against Nb-V1 [13] [fold] | Binder
3 | 11.5 | 28.4 | 137 | 4.84 | – | – | – | – | – | – | – | – | – | – | – | – | – | – | – | – | Nb-VF3\cmycH6 (bispecific antibody, Nb-VF3 without c-myc tracer peptide and histidine tag) QVQLVESGGGLVQPGGSLRLSCAASGNSAEDRLYNSYTWFRQAPGQGLEAVAAISSHFSAGLTYYADSVKGRFTISRDNSKNTLYLQMNSLRAEDTAVYYCEITSHASHNDAWSTPRTVWGQGTLVTVSSAHHSEDPSSKAPKAPAQVQLVESGGGLVQPGGSLRLSCAASGTEDGRLLTLGGSWFRQAPGQGLEAVAAIGAGDRGGATYYADSVKGRFTISRDNSKNTLYLQMNSLRAEDTAVYYCTALYERQPQLAATKVARKWGQGTLVTVSS
4 | – | – | – | – | 11.5 | 2030 | 3200 | 17500 | 4980 | 6000 | 17500 | 28.3 | 129 | 122 | 4.59 | 131 | 63 | 55 | 40 | – | Nb-FV1 (bispecific antibody, Bispecific tandem VHH (bFGF and VEGF); with c-myc and histidine tag) QVQLVESGGGLVQPGGSLRLSCAASGTEDGRLLTLGGSWFRQAPGQGLEAVAAIGAGDRGGATYYADSVKGRFTISRDNSKNTLYLQMNSLRAEDTAVYYCTALYERQPQLAATKVARKWGQGTLVTVSSAHHSEDPSSKAPKAPAQVQLVESGGGLVQPGGSLRLSCAASGNSAEDRLYNSYTWFRQAPGQGLEAVAAISSHFSAGLTYYADSVKGRFTISRDNSKNTLYLQMNSLRAEDTAVYYCEITSHASHNDAWSTPRTVWGQGTLVTVSSAAAGSEQKLISEEDLNSHHHHHH
5 | – | – | – | – | – | 4200 | 6520 | 18000 | 5110 | 11200 | 18700 | 5.6 | 30 | > 6000 | 1.9 | – | 52 | 41 | 36 | 2 | Nb-VV6 (VHH, Bivalent monospecific tandem VHH for VEGF, hinge spacer with cysteines replaced by alanines; with c-myc and histidine tag) QVQLVESGGGLVQPGGSLRLSCAASGNSAEDRLYNSYTWFRQAPGQGLEAVAAISSHFSAGLTYYADSVKGRFTISRDNSKNTLYLQMNSLRAEDTAVYYCEITSHASHNDAWSTPRTVWGQGTLVTVSSAHHSEDPSSKAPKAPAQVQLVESGGGLVQPGGSLRLSCAASGNSAQDRLYNSYTWFRQAPGQGLEAVAAISSHFSAGLTYYADSVKGRFTISRDNSKNTLYLQMNSLRAEDTAVYYCEITSHASHNDAWSTPRTVWGQGTLVTVSSAAAGSEQKLISEEDLNSHHHHHH
